Experimental findings from the supplement of paper PMC10567573 are described below.

B1: TMEM175 (parent)
chain: ALLHQAETLQPSVWFGGREHVLMF
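Note: lentivirally expressed fusions sorted by FACS into six bins by GFP to DsRed ratio, PSI derived from sequencing read proportions per bin multiplied by bin number.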

This series covers variants of B1. In words: protein stability index of a GFP-peptide fusion (GPS, HEK-293T) (PSI 1-6); higher = more stable. As to conditions: c terminus: a fixed tail appended.
In the case of ALLHQAETLQPSVWFGGREHQLMF [V21Q], the protein stability index was 1.69. The result for ALLHQAETLQPSVWFGGREHPLMF [V21P] reads 2.11; that for ALLHQAETLQPSVWFGGREHHLMF [V21H], 2.89. The result for ALLHQAETLQPSVWFGGREHYLMF [V21Y] reads 1.7; that for ALLHQAETLQPSVWFGGREHMLMF [V21M], 2.55; that for ALLHQAETLQPSVWFGGREHCLMF [V21C], 2.73. The figure for ALLHQAETLQPSVWFGGREHGLMF [V21G] is 2.89.

On to ALLHQAETLQPSVWFGGREHVLMD [F24D], for which the protein stability index came to 2.69. The result for ALLHQAETLQPSVWFGGREHVLMQ [F24Q] reads 2.4. ALLHQAETLQPSVWFGGREHVLMT [F24T]: the protein stability index came to 2. The result for ALLHQAETLQPSVWFGGREHVLMW [F24W] reads 2.13; that for ALLHQAETLQPSVWFGGREHVLMR [F24R], 2.56. The figure for ALLHQAETLQPSVWFGGREHVLMS [F24S] is 2.56. The result for ALLHQAETLQPSVWFGGREHVLML [F24L] reads 2.21. Regarding ALLHQAETLQPSVYFGGREHVLMF [W14Y], the protein stability index came out at 2.11.

In the case of ALLHQAETLQPSVDFGGREHVLMF [W14D], the protein stability index is 1.74. ALLHQAETLQPSVFFGGREHVLMF [W14F]: the protein stability index amounted to 2.48. The result for ALLHQAETLQPSVEFGGREHVLMF [W14E] reads 1.38; that for ALLHQAETLQPSVAFGGREHVLMF [W14A], 1.66. As for ALLHQAETLQPSVIFGGREHVLMF [W14I], the protein stability index stood at 2.22.

Turning to ALLHQAETLQPSVHFGGREHVLMF [W14H], the protein stability index is 2.31. The figure for ALLHQAETLQPSVSFGGREHVLMF [W14S] is 1.55; for ALLHQAETLQPSVGFGGREHVLMF [W14G] it is 2.64; for ALLHQAETLQPSVWHGGREHVLMF [F15H] it is 2.12. The figure for ALLHQAETLQPSVWTGGREHVLMF [F15T] is 1.85. The figure for ALLHQAETLQPSVWYGGREHVLMF [F15Y] is 2.4; for ALLHQAETLQPSVWGGGREHVLMF [F15G] it is 2.22; for ALLHQAETLQPSVWAGGREHVLMF [F15A] it is 1.88.

ALLHQAETLQPSVWCGGREHVLMF [F15C]: the protein stability index was 2.5. The result for ALLHQAETLQPSVWDGGREHVLMF [F15D] reads 2.29. The figure for ALLHQAETLQPSVWSGGREHVLMF [F15S] is 1.57; for ALLHQAETLQPSVWNGGREHVLMF [F15N] it is 1.65; for ALLHQAETLQPSVWQGGREHVLMF [F15Q] it is 1.27. In the case of ALLHQAETLQGSVWFGGREHVLMF [P11G], the protein stability index was found to be 1.24. As to ALLHQAETLQHSVWFGGREHVLMF [P11H], the protein stability index amounted to 1.77. On to ALLHQAETLQKSVWFGGREHVLMF [P11K], for which the protein stability index was determined as 2.59.

Regarding ALLHQAETLQRSVWFGGREHVLMF [P11R], the protein stability index was found to be 4.75. In the case of ALLHQAETLQDSVWFGGREHVLMF [P11D], the protein stability index came to 2.79. On to ALLHQAETLSPSVWFGGREHVLMF [Q10S], for which the protein stability index stood at 2.2.

In the case of ALLHQAETLRPSVWFGGREHVLMF [Q10R], the protein stability index came to 2.36.

Regarding ALLHQAETLDPSVWFGGREHVLMF [Q10D], the protein stability index was determined as 2.35. Take ALLHQAETLIPSVWFGGREHVLMF [Q10I]: the protein stability index came out at 2.49. The figure for ALLHQAETLNPSVWFGGREHVLMF [Q10N] is 3.13; for ALLHQAETLQPSQWFGGREHVLMF [V13Q] it is 3.1. The result for ALLHQAETLQPSEWFGGREHVLMF [V13E] reads 1.86; that for ALLHQAETLQPSYWFGGREHVLMF [V13Y], 1.69. Regarding ALLHQAETLQPSPWFGGREHVLMF [V13P], the protein stability index is 2.16. For the variant ALLHQAETLQPSSWFGGREHVLMF [V13S], the protein stability index is 2.73.

With ALLHQAETLQPSCWFGGREHVLMF [V13C], the protein stability index turned out to be 3.13. The result for ALLHQAETLQPSHWFGGREHVLMF [V13H] reads 2.22; that for ALLHQAETLQPSNWFGGREHVLMF [V13N], 2.28; that for ALLHQAETLQPSAWFGGREHVLMF [V13A], 3.02.

ALLHQAETLQPSVWFGGWEHVLMF [R18W]: the protein stability index was determined as 3.12.

Turning to ALLHQAETLQPSVWFGGLEHVLMF [R18L], the protein stability index was 3.03. As to ALLHQAETLQPSVWFGGFEHVLMF [R18F], the protein stability index was 2.29. The result for ALLHQAETLQPSVWFGGMEHVLMF [R18M] reads 2.03; that for ALLHQAETLQPSVWFGGNEHVLMF [R18N], 3.11; that for ALLHQAETLQPSVWFGGVEHVLMF [R18V], 1.44.

As to ALLHQAETLQPSVWFGGQEHVLMF [R18Q], the protein stability index was found to be 2.33. The result for ALLHQAETLQPSVWFGGHEHVLMF [R18H] reads 2.17; that for ALLHQAETLQPSVWFGGAEHVLMF [R18A], 2.59. Turning to ALLHQAETLQPMVWFGGREHVLMF [S12M], the protein stability index came out at 1.75. The result for ALLHQAETLQPPVWFGGREHVLMF [S12P] reads 4.3; that for ALLHQAETLQPTVWFGGREHVLMF [S12T], 2.65. The result for ALLHQAETLQPHVWFGGREHVLMF [S12H] reads 1.15; that for ALLHQAETLQPWVWFGGREHVLMF [S12W], 2.82; that for ALLHQAETLQPVVWFGGREHVLMF [S12V], 3.21. As to ALLHQAETLQPNVWFGGREHVLMF [S12N], the protein stability index amounted to 1.

Consider ALYHQAETLQPSVWFGGREHVLMF [L3Y], for which the protein stability index turned out to be 3.46. As for ALQHQAETLQPSVWFGGREHVLMF [L3Q], the protein stability index was determined as 1.54. ALEHQAETLQPSVWFGGREHVLMF [L3E]: the protein stability index was found to be 1.94. The figure for ALAHQAETLQPSVWFGGREHVLMF [L3A] is 1.76. The result for ALGHQAETLQPSVWFGGREHVLMF [L3G] reads 2.83; that for ALSHQAETLQPSVWFGGREHVLMF [L3S], 2.25. The figure for ALNHQAETLQPSVWFGGREHVLMF [L3N] is 1.04. As for ALRHQAETLQPSVWFGGREHVLMF [L3R], the protein stability index turned out to be 1.62. The figure for ALPHQAETLQPSVWFGGREHVLMF [L3P] is 1.61; for ALLHQAETLQPSVWFGGREEVLMF [H20E] it is 1.6; for ALLHQAETLQPSVWFGGREMVLMF [H20M] it is 3.07. The result for ALLHQAETLQPSVWFGGRENVLMF [H20N] reads 2.48; that for ALLHQAETLQPSVWFGGREQVLMF [H20Q], 1.44.

Consider ALLHQAETLQPSVWFGGREPVLMF [H20P], for which the protein stability index worked out at 3.07. The figure for ALLHQAETLQPSVWFGGRERVLMF [H20R] is 4.2; for FLLHQAETLQPSVWFGGREHVLMF [A1F] it is 2.59; for LLLHQAETLQPSVWFGGREHVLMF [A1L] it is 2.58. The figure for DLLHQAETLQPSVWFGGREHVLMF [A1D] is 1.48; for ELLHQAETLQPSVWFGGREHVLMF [A1E] it is 1.02; for HLLHQAETLQPSVWFGGREHVLMF [A1H] it is 2.14. The figure for TLLHQAETLQPSVWFGGREHVLMF [A1T] is 2.38; for CLLHQAETLQPSVWFGGREHVLMF [A1C] it is 1.71. Consider PLLHQAETLQPSVWFGGREHVLMF [A1P], for which the protein stability index is 1.69. The result for YLLHQAETLQPSVWFGGREHVLMF [A1Y] reads 2.71; that for GLLHQAETLQPSVWFGGREHVLMF [A1G], 2.95; that for RLLHQAETLQPSVWFGGREHVLMF [A1R], 1.81.
